Values of other authors as cited in publication PMC7225939.
Where two headings read alike, the source gives them in different places. Each block holds one substance with its values, some of them ahead of it.

Assays:
[1] = biological target: PCNA (Homo sapiens) (UniProt P12004); experiment: ITC
[2] = biological target: RecQ5 (Homo sapiens); experiment: NMR
[3] = biological target: p15PAF (Homo sapiens); experiment: ITC
[4] = biological target: p12 (Homo sapiens); experiment: ITC
[5] = biological target: PARG (Homo sapiens); experiment: ITC
[6] = biological target: DNMT1 (Homo sapiens); experiment: ITC
Sequence of DNMT1 (Homo sapiens) (P26358 161-180): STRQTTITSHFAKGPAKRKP

[7] = biological target: FEN1 (Homo sapiens); experiment: ITC
[8] = biological target: p68 (Homo sapiens); experiment: ITC
[9] = biological target: ZRANB3 (Homo sapiens); experiment: ITC
Target sequence in this assay (Q5FWF4 511-532): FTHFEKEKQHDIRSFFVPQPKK

[10] = biological target: p21 (Homo sapiens); experiment: ITC
Sequence of p21 (Homo sapiens) (P38936 139-160): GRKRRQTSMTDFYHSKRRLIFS

[11] = biological target: UHRF2 (Homo sapiens); experiment: ITC
[12] = biological target: p15 (PAF15) (Homo sapiens) (UniProt Q15004); experiment: ITC
Sequence of p15 (PAF15) (Homo sapiens) (Q15004 whole entry): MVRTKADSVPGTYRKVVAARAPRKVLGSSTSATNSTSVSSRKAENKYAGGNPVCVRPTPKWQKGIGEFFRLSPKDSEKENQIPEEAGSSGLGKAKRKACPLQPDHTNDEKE

[13] = biological target: DVC1 (Homo sapiens); experiment: ITC
[14] = biological target: TRAIP (Homo sapiens); experiment: ITC
Sequence of TRAIP (Homo sapiens) (Q9BWF2 447-469): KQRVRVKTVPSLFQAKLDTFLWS

[15] = biological target: pol ι (Homo sapiens); experiment: SPR
[16] = biological target: pol η (Homo sapiens); experiment: SPR
Sequence of pol η (Homo sapiens) (Q9Y253 other isoform, or with tags, fused parts or gaps): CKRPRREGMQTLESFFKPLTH

[17] = biological target: ZRANB3 (Homo sapiens); experiment: ITC; remark: listed apart in the source
Target sequence in this assay (Q5FWF4 1058-1079): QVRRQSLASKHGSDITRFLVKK

[18] = biological target: Cdt1 (Homo sapiens); experiment: FP
[19] = biological target: Cdt2 (Homo sapiens); experiment: FP

Sequence of PCNA (P12004 whole entry): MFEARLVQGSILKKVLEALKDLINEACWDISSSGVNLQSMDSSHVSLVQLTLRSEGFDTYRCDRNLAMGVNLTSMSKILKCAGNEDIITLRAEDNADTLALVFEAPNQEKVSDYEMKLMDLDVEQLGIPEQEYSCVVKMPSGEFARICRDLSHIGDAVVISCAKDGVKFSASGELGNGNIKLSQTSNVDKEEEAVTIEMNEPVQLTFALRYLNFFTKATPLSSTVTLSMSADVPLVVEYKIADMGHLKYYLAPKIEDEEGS
Sequence of PCNA (Homo sapiens) (P12004 whole entry): as above
Sequence of p15PAF (from UniProt Q15004) (Q15004 whole entry): as the sequence (Q15004 whole entry) above
Sequence of p15PAF (Homo sapiens) (Q15004 50-77): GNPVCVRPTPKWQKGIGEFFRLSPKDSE
Sequence of RecQ5 (Homo sapiens) (O94762 952-980): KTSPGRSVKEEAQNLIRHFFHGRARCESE

Kd [1]: 59.9 µM
Substance: FEN1

Kd [2]: 210 µM
Kd [3]: 5.56 µM
Kd [4]: 38 µM
Kd [5]: 3.3 µM
Kd [6]: 1000 nM
Kd [7]: 59.9 µM
Kd [8]: 16 µM
Kd [9]: 4.8 µM
Kd [10]: 80 nM
Kd [11]: 25.7 µM
Kd [12]: 1100 nM
Kd [13]: 15.6 µM
Kd [14]: 30.7 µM
Kd [15]: 390 nM
Kd [16]: 400 nM
Kd [17]: 9.24 µM
Kd [18]: 7.2 µM
Kd [19]: 57 nM
Substance: PCNA (from UniProt P12004)

Kd [1]: 4.8 µM
Substance: ZRANB3

Kd [1]: 5.56 µM
Substance: p15PAF

Kd [1]: 1.1 µM
Substance: p15PAF (from UniProt Q15004)

Kd [1]: 0.08 µM
Substance: p21

Kd [1]: 16 µM
Substance: p68 (DNA polymerase delta subunit)
